Laboratory results published in paper PMC3467072.

What was measured:
[1] = target: Rv3066 regulator, full-length, with a 6xHis tag at the C-terminus (Mycobacterium tuberculosis strain H37Rv) (UniProt I6X658); experiment: crystal structure
[2] = target: T1, Rv3066 (TetR-family regulator) (Mycobacterium tuberculosis H37Rv) (UniProt I6X658); experiment: DNase I footprinting
T1 sequence: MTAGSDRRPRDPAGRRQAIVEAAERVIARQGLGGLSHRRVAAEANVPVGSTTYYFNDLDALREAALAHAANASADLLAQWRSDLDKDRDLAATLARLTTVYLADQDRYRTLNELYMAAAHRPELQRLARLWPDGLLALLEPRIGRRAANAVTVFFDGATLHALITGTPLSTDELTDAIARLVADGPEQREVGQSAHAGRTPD

Substance: Rv3066 regulator, full-length, with a 6xHis tag at the C-terminus (from UniProt I6X658 1-202) (natural protein)
- stoichiometry N [1]: 2

Substance: TCGAGATCTTTCACCATGACACGACGTTACGGGGATCGACCGCGCGAACGCTGGGCGGATTTTGTCTCCCACCGGTGTGCCTACTCACGTGTGGACGCACGAGCCTCCTTTGTGTACATTTGTACACAAAGGAGGGGTCTTGATCTACCTATACCTCTTGTGCGCGATCTTCGCGGAAGTGGTGGCAACCAGCCTGCTCAAAAGCACGGAAGGGTTCACTCGGTTG (double strand) [226-bp mmr promoter probe (IR1, IR2 removed)]
- binding [2]: binds
